The values below come from PMC4695023, “Pancreatic adenocarcinoma upregulated factor serves as adjuvant by activating dendritic cells through stimulation of TLR4” (Oncotarget, 2015).

For assay [1], the target named is T1, Toll-like receptor 2 (TLR2), from DC lysate (mouse (endogenous in bone …, UniProt Q9QUN7 25-784)).
T1 construct: TLR2, endogenous in dendritic cells; captured from DC lysate with an anti-mouse CD282 (TLR2) antibody on a Protein A sensor; Other lysate proteins may have been captured along with TLR2; also called CD282; source: endogenous, DC lysate, captured on the sensor by anti-mouse CD282 (TLR2) antibody
Briefly: BLI; BLItz system; Protein A sensor loaded with TLR2 or TLR4 antibody (0.1 mg/mL), then DC lysate (0.3 mg/mL, 150 sec); association with purified PAUF or BSA (0.3 mg/mL) for 150 sec, dissociation in PBS for 150 sec; KD from BLItz pro software as a non-advanced kinetics experiment. The note with it: one partner purified.

Assay [2] addresses T2, Toll-like receptor 4 (TLR4), from DC lysate (mouse (endogenous in bone …, UniProt Q9QUK6 26-835)).
T2 construct: TLR4, endogenous in dendritic cells; captured from DC lysate with a TLR4/CD284 antibody on a Protein A sensor; Other lysate proteins (e.g. MD-2) may have been captured along with TLR4 (surmised); also called CD284; source: endogenous, DC lysate, captured on the sensor by TLR4/CD284 antibody (IMGENEX)
T2 sequence (looked up): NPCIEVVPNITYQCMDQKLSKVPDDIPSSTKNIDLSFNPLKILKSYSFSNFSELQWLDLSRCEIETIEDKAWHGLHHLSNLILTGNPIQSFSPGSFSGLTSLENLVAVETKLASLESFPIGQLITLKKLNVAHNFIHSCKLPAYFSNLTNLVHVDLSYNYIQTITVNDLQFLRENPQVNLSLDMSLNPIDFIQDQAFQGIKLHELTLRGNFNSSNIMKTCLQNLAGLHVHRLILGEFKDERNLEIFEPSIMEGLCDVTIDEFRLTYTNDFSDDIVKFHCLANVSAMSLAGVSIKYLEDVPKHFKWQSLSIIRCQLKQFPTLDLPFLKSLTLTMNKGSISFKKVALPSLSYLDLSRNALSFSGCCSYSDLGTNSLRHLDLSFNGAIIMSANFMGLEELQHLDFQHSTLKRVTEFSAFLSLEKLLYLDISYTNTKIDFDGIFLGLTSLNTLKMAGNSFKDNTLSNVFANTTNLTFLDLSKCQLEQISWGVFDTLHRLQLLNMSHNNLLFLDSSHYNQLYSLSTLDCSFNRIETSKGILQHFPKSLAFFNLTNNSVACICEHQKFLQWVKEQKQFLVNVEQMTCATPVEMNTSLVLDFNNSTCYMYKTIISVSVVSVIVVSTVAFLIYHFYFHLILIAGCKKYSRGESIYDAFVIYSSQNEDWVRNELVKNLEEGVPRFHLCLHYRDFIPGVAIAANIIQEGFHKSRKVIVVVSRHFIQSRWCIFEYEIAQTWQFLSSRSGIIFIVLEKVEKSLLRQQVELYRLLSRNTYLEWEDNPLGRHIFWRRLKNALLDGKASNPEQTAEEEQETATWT
Described as above. The note with it: one partner purified.

T1 sequence (Q9QUN7 25-784): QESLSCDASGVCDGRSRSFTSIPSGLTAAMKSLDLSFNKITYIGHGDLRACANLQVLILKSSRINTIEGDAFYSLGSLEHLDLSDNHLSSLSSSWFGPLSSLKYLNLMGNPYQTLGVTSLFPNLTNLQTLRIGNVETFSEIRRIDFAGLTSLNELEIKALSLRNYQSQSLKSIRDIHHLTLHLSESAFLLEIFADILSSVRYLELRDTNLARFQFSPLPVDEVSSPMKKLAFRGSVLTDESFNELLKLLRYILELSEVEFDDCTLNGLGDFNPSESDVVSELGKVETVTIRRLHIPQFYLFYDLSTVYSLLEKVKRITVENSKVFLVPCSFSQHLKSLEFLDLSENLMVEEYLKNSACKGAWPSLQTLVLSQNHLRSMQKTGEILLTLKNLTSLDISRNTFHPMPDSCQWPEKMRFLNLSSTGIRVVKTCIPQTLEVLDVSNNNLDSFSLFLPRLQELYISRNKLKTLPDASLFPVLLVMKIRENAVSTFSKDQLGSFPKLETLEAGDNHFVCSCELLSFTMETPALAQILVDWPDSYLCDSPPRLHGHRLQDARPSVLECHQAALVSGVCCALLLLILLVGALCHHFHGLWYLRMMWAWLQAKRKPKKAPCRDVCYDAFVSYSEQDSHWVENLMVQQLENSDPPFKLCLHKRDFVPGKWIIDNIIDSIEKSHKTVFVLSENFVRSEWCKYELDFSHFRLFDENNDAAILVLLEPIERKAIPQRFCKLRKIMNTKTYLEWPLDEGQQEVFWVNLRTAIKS

B1: Pancreatic adenocarcinoma upregulated factor (PAUF), recombinant, Fc removed (ligand, human, UniProt Q96DA0 17-172, looked up)
chain: GKMYGPGGGKYFSTTEDYDHEITGLRVSVGLLLVKSVQVKLGDSWDVKLGALGGNTQEVTLQPGEYITKVFVAFQAFLRGMVMYTSKDRYFYFGKLDGQISSAYPSQEGQVLVGIYGQYQLLGIKSIGFEWNYPLEEPTTEPPVNLTYSANSPVGR
notes: As a secreted protein it should lack its signal peptide (surmised); also called purified PAUF; PAUF protein; source: CHO/dhFr- cells, transfected with pcDNA3.1(+)-PAUF-Fc; secreted PAUF-Fc purified using Protein A resin, then Fc removed
A word on the Kd: it is the concentration at which binding is half-saturated. Low readings indicate tighter binding, high ones weaker binding. In the case of B1, the dissociation constant Kd stood at 10.6 nM in assay [1] and 145 nM in assay [2].
